Experimental data from patent publication US9475855B2, “Human Notch3 based fusion proteins as decoy inhibitors of Notch3 signaling” (THE TRUSTEES OF COLUMBIA UNIVERSITY IN THE CITY OF NEW YORK, priority 2008, dated 2016).

Assays:
CBF1 promoter activity = test: VEGF-induced Notch signaling, CBF1 promoter (CSL-luciferase) reporter activity in HUVEC; assay type: cell-based, human; settings: for inhibition of CBF1 promoter activity induced by Ad-VEGF: 40 MOI for each adenovirus; for VEGF-induced CBF1 promoter / CSL-luciferase reporter activity: Ad-VEGF-transduced HUVEC
Procedure: To determine VEGF-induced Notch signaling, HUVEC which were infected with adenovirus were used. HUVEC plated 1-day prior in 6 well plates at 8.0×10^5 were infected with either Ad-LacZ as control or Ad-VEGF at indicated m.o.i. in the presence or absence of Ad-N1ECD/Fc. Two days after infection, infected HUVEC were re-seeded into 24-well plate at 1.5×10^5 cell in triplicate and cultured for 24 hours, and then transfected with 12.5 ng pRL-SV40 (Promega) and 137.5 ng pGA981-6 using Effectene transfection reagent (Qiagen). Cells were harvested either 1 or 2 days post-transfection and luciferase activity was determined by using the Dual-Luciferase® Reporter Assay System (Promega).
One can measure Notch signaling function by measuring transcriptional activity of CBF1 promoter, which is activated by binding of Notch-IC to CBF1. We measured CBF1 promoter activity in HUVEC which was infected with adenovirus encoding VEGF-165 at different MOI (FIG. 6). Induction of CBF1 promoter was clearly detected in Ad-VEGF-infected HUVEC, compared to Ad-LacZ-infected cells in the MOI dependent manner. […] Thus VEGF induced Notch signaling activity.

MT1-MMP = test: RT-PCR analysis of MT1-MMP expression in HUVEC; assay type: cell-based, human
Procedure: (§1) FIGS. 24A-B show gelatin zymography analysis of MMP-9 and MMP-2 activity stimulated by VEGF in HUVEC. […] Transduced HUVEC were cultured on fibrin gel on the indicated day (i.e. D2, D4, D6, D8). Similar results were also obtained by using collagen gel, although induction of MMP-9 was stronger on fibrin gel than collagen gel (data not shown). […] HUVEC were transduced with Ad-N1ECDFc at the indicated doses and condition medium was collected from HUVEC cultured on collagen gel at day 4. FIGS. 24C-D show up-regulation of MMP-9 and MT1-MMP with Notch signaling. HUVEC were transduced with either Ad-LacZ or Ad-N1IC at 40 MOI. Numbers show PCR cycles. […] HUVEC were transduced with Ad-VEGF in the absence or presence of co-transduction of Ad-N1ECDFc at 40 MOI each. Ad-LacZ was co-transduced to make the same total amount of adenovirus at 80 MOI.
(§2) Requisition of MMPs for angiogenic sprouting has been established by synthetic MMP inhibitors (16). GM6001 is one broad inhibitor against MMPs including MMP2, MMP9 and MT1-MMP (18).

MMP2 = test: gelatin zymography of conditioned medium, MMP-2; assay type: cell-based, human; settings: co-transduction with Ad-VEGF, collagen gel, day 4
Procedure: as §1, §2

Notch1 signaling = test: co-culture assay of ligand-induced Notch signaling (CSL-luciferase reporter; HeLa expressing Notch1, ligand-expressing 293/Bosc cells); assay type: cell-based; settings: for activation of Notch1 signaling by Notch ligands: N1ECD/Fc expression vector co-transfected with full-length Notch1 and CSL-luciferase reporter in HeLa cells, co-culture with ligand expressing cells
Procedure: Notch and Notch responsive transcriptional reporters are expressed in a “Notch-responsive” cell, HeLa. Notch ligands, Jagged-1, Delta-like 1, or Delta-like 4 are expressed in a “ligand-presenting” cell, 293. Expression is mediated by transfection of individual cell populations, cells are co-cultured, and then assayed for Notch-dependent reporter activity.
To determine ligand-induced Notch signaling, co-culture assays were performed using HeLa and 293-derived Bosc cells. Transient transfections were performed by calcium phosphate precipitation. Hela cells plated 1-day prior in 10-cm plates at 1.5×10^6 were transfected with 333 ng of pBOS Notch1, 333 ng pGA981-6, and 83 ng pLNC lacZ with either 666 ng pCMV-Fc or pHyTC-N1ECDFc (333 ng for x1, 666 ng for x2). Bosc cells plated 1-day prior in 10-cm plates at 4×10^6 were transfected with either 680 ng pHyTc-Jagged1, pHyTc-Dll1, pHyTc-Dll4, or pHyTc-x (empty vector). One day after transfection, the cells were co-cultured in triplicate (HeLa:Bosc, 1:2) on 12-well plates for 24 hours. Cells were harvested and luciferase activity was determined 2-days post-transfection using the Enhanced Luciferase assay kit (BD PharMingen), and […] activity was determined using the Galacto-Light Plus kit (PE Biosystems). All assays were performed in a Berthold dual-injection luminometer.
An in vitro co-culture system (FIG. 3) with ligands expressed on one cell and Notch receptor activation scored in another cell was used to measure transcriptional activation of the Notch pathway. […] The N1ECD/Fc expression vector was co-transfected at different ratios with full-length Notch1 and the CSL-luciferase reporter in HeLa cells, followed by co-culture with ligand expressing 293 cells. We observed that activation of Notch1 signaling by Notch ligands was reduced by N1ECD/Fc expression. […] Notch1ECD/Fc could block signaling mediated by Jagged1, Delta-like 1 or Delta-like 4.

MMP9 = test: gelatin zymography of conditioned medium, MMP-9; assay type: cell-based, human; settings: co-transduction with Ad-VEGF, fibrin gel
Procedure: as §1, §2

B1: N1ECDFc: Notch-based fusion protein or decoy: Notch1 extracellular domain EGF repeats fused to Fc; expressed from plasmid or adenovirus (Ad-N1ECDFc) (protein)
chain: ARGLRCSQPSGTCLNGGRCEVANGTEACVCSGAFVGQRCQDPSPCLSTPCKNAGTCYVVDHGGIVDYACSCPLGFSGPLCLTPLANACLANPCRNGGTCDLLTLTEYKCRCPPGWSGKSCQQADPCASNPCANGGQCLPFESSYICGCPPGFHGPTCRQDVNECSQNPGLCRHGGTCHNEIGSYRCACRATHTGPHCELPYVPCSPSPCQNGGTCRPTGDTTHECACLPGFAGQNCEENVDDCPGNNCKNGGACVDGVNTYNCRCPPEWTGQYCTEDVDECQLMPNACQNAGTCHNSHGGYNCVCVNGWTGEDCSDNIDDCASAACFQGATCHDRVASFYCECPHGRTGLLCHLNDACISNPCNEGSNCDTNPVNGKAICTCPRGYTGPACSQDVDECALGANPCEHAGKCLNTLGSFECQCLQGYTGPRCEIDVNECISNPCQNDATCLDQIGEFQCICMPGYEGVYCEINTDECASSPCLHNGRCVDKINEFLCQCPKGFSGHLCQYDVDECASTPCKNGAKCLDGPNTYTCVCTEGYTGTHCEVDIDECDPDPCHIGLCKDGVATFTCLCQPGYTGHHCETNINECHSQPCRHGGTCQDRDNYYLCLCLKGTTGPNCEINLDDCASNPCDSGTCLDKIDGYECACEPGYTGSMCNVNIDECAGSPCHNGGTCEDGIAGFTCRCPEGYHDPTCLSEVNECNSNPCIHGACRDGLNGYKCDCAPGWSGTNCDINNNECESNPCVNGGTCKDMTSGYVCTCREGFSGPNCQTNINECASNPCLNQGTCIDDVAGYKCNCPLPYTGATCEVVLAPCATSPCKNSGVCKESEDYESFSCVCPTGWQGQTCEIDINECVKSPCRHGASCQNTNGSYRCLCQAGYTGRNCESDIDDCRPNPCHNGGSCTDGVNAAFCDCLPGFQGAFCEEDINECATNPCQNGANCTDCVDSYTCTCPTGFNGIHCENNTPDCTESSCFNGGTCVDGINSFTCLCPPGFTGSYCQYDVNECDSRPCLHGGTCQDSYGTYKCTCPQGYTGLNCQNLVRWCDSAPCKNGGKCWQTNTQYHCECRSGWTGFNCDVLSVSCEVAAQKRGIDVTLLCQHGGLCVDEEDKHYCHCQAGYTGSYCEDEVDECSPNPCQNGATCTDYLGGFSCKCVAGYHGSNCSEEINECLSQPCQNGGTCIDLTNTYKCSCPRGTQGVHCEINVDDCHPPLDPASRSPKCFNNGTCVDQVGGYTCTCPPGFVGERCEGDVNECLSNPCDPRGTQNCVQRVNDFHCECRAGHTGRRCESVINGCRGKPCRNGGVCAVASNTARGFICRCPARFEGATCENDARTCGSLRCLNGGTCISGPRSPTCLCLGSFTGPECQFPASSPCVGSNPCYNQGTCEPTSESPFYRCLCPAKFNGLLCHILDYSFTDLGPG
modifications: left off: a dimerising Fc or GST
- inhibition of CBF1 promoter activity induced by Ad-VEGF (CBF1 promoter activity; 24 hr after reporter gene transfection): 60%
- inhibition of CBF1 promoter activity induced by Ad-VEGF (CBF1 promoter activity; 48 hr after reporter gene transfection): 90%
- VEGF-induced CBF1 promoter / CSL-luciferase reporter activity (CBF1 promoter activity): clearly decreased
- VEGF-induced CBF1 promoter / CSL-luciferase reporter activity (CBF1 promoter activity; listed as Notch fusion protein): clearly reduced
- expression of MT1-MMP (MT1-MMP; Ad-N1ECDFc infection alone, Ad-LacZ infected HUVEC (data not shown)): did not affect
- VEGF-induced up-regulation of MT1-MMP mRNA (MT1-MMP; Ad-VEGF-HUVEC, co-transduction at 40 MOI each): inhibited
- activation of MMP2 (MMP2): inhibition
- concentration-dependency of inhibiting signaling (Notch1 signaling; 2:1 ratio of N1ECD/Fc to Notch1 compared with 1:1 ratio): more effective
- activation of Notch1 signaling by Notch ligands (Notch1 signaling): inhibition
- activation of Notch1 signaling by Notch ligands (Notch1 signaling; listed as N1ECD/Fc): reduced
- signaling mediated by Delta-like 1 (Notch1 signaling; co-culture with Delta-like 1 expressing cells): block
- signaling mediated by Delta-like 4 (Notch1 signaling; co-culture with Delta-like 4 expressing cells): block
- signaling mediated by Jagged1 (Notch1 signaling; co-culture with Jagged1 expressing cells): block
- induction and activation of MMP9 (MMP9): inhibition
